Substrate: O=C1OC(c2ccc(O)c(S(=O)(=O)O)c2)(c2ccc(O)c(S(=O)(=O)O)c2)c2c(Br)c(Br)c(Br)c(Br)c21
Experiment: TP_TRANSPORTER: uptake (no BSA) in Xenopus laevis oocytes
Type: functional, cell-based, Oocyte

B1: Solute carrier organic anion transporter family member 1A1 (Rattus norvegicus) (protein)
chain: MEETEKKIATQEGRLFSKMKVFLLSLTCACLTKSLSGVYMNSMLTQIERQFDISTSVAGLINGSFEIGNLFFIVFVSYFGTKLHRPVVIGIGCVIMGLGCLLMSLPHFFMGRYEYETTISPTGNLSSNSFLCMENRTQTLKPTQDPAECVKEMKSLMWICVMVGNIIRGIGETPIVPLGISYIEDFAKSENSPLYIGILEMGKVAGPIFGLLLGSYCAQIYVDIGSVNTDDLTITPSDTRWVGAWWIGFLVCAGVNILTSIPFFFLPKALPKKGQQENVAVTKDGKVEKYGGQAREENLGITKDFLTFMKRLFCNPIYMLFILTSVLQVNGFINKFTFLPKYLEQQYGKSTAEAIFLIGVYSLPPICLGYLIGGFIMKKFKITVKKAAYLAFCLSVFEYLLFLCHFMLTCDNAAVAGLTTSYKGVQHQLHVESKVLADCNTRCSCSTNTWDPVCGDNGVAYMSACLAGCKKFVGTGTNMVFQDCSCIQSLGNSSAVLGLCKKGPECANRLQYFLILTIIISFIYSLTAIPGYMVFLRCVKSEEKSLGVGLHTFCIRVFAGIPAPVYFGALIDRTCLHWGTLKCGQRGACRMYDINSFRHIYLGLPIALRGSSYLPAFFILILMRKFQFPGDIDSSATDHTEMMLGEKESEHTDVHGSPQVENDGELKTKL
Km: 1.5 µM
